Data taken from patent US20190142971A1, “FORMULATION AND DELIVERY OF MODIFIED NUCLEOSIDE, NUCLEOTIDE, AND NUCLEIC ACID COMPOSITIONS” (ModernaTX, Inc., priority 2013, published 2019).

What was measured:
[1] = test system: non-human primates (cynomolgus monkey); assay: Example 22: NHP hematology: neutrophils, reticulocytes, HGB, HCT, RBC (Tables 40-44); assay type: in vivo; details: for Female NHP HGB / Female NHP Neutrophils / Male NHP HGB / Male NHP Neutrophils: 0.5 mg/kg IV
Procedure: LNP formulations, shown in Table 33 (above), were administered to non-human primates (NHP) (cynomolgus monkey) (n=2) as intravenous injection (IV). The NHP were administered a single modified mRNA IV dose of 0.5 mg/kg, 0.05 mg/kg or 0.005 mg/kg of G-CSF or EPO in a dose volume of 0.5 mL/kg. The NHPs were bled before dosing with the modified mRNA LNP formulations to determine protein expression in the serum and a baseline complete blood count. After administration with the G-CSF modified mRNA formulation the NHP were bled at 8, 24, 48 and 72 hours to determined protein expression. After administration with the EPO modified mRNA formulation the NHP were bled at 8, 24, 48, 72 hours and 7 days to determined protein expression.
Samples collected from the NHPs after they were administered with G-CSF or EPO modified mRNA formulations were analyzed by ELISA to determine protein expression. Neutrophil and reticulocyte count was also determined pre-dose, 24 hours, 3 days, 7 days, 14 days and 18 days after administration of the modified G-CSF or EPO formulation.

mice = assay: Example 42A: G-CSF/EPO mRNA in buffer IM in mice, serum protein at 13 hours (Table 67); assay type: in vivo; details: G-CSF group: human G-CSF in mouse serum, IM 100 ug
Procedure: The mice were bled at 13 hours after the injection to determine the concentration of the human polypeptide in serum in pg/mL (G-CSF groups measured human G-CSF in mouse serum and EPO groups measured human EPO in mouse serum).

[2] = 0.05 mg/kg, 14/18 days, Female NHP
[3] = 0.05 mg/kg, 14/18 days, Male NHP
[4] = 0.05 mg/kg, 24 hours, Female NHP
[5] = 0.05 mg/kg, Pre-dose, Female NHP
[6] = 0.5 mg/kg, 14/18 days, Female NHP
[7] = 0.5 mg/kg, 14/18 days, Male NHP
[8] = 0.5 mg/kg, 24 hours, Female NHP
[9] = 0.5 mg/kg, Pre-dose, Female NHP

B1: G-CSF: modified mRNA encoding human G-CSF, SEQ ID NO: 4, Cap1, fully modified with 5-methylcytosine and pseudouridine; LNP-formulated in Examples 16-22 (nucleic acid)
chain: GGGAAAUAAGAGAGAAAAGAAGAGUAAGAAGAAAUAUAAGAGCCACCAUGGCCGGUCCCGCGACCCAAAGCCCCAUGAAACUUAUGGCCCUGCAGUUGCUGCUUUGGCACUCGGCCCUCUGGACAGUCCAAGAAGCGACUCCUCUCGGACCUGCCUCAUCGUUGCCGCAGUCAUUCCUUUUGAAGUGUCUGGAGCAGGUGCGAAAGAUUCAGGGCGAUGGAGCCGCACUCCAAGAGAAGCUCUGCGCGACAUACAAACUUUGCCAUCCCGAGGAGCUCGUACUGCUCGGGCACAGCUUGGGGAUUCCCUGGGCUCCUCUCUCGUCCUGUCCGUCGCAGGCUUUGCAGUUGGCAGGGUGCCUUUCCCAGCUCCACUCCGGUUUGUUCUUGUAUCAGGGACUGCUGCAAGCCCUUGAGGGAAUCUCGCCAGAAUUGGGCCCGACGCUGGACACGUUGCAGCUCGACGUGGCGGAUUUCGCAACAACCAUCUGGCAGCAGAUGGAGGAACUGGGGAUGGCACCCGCGCUGCAGCCCACGCAGGGGGCAAUGCCGGCCUUUGCGUCCGCGUUUCAGCGCAGGGCGGGUGGAGUCCUCGUAGCGAGCCACCUUCAAUCAUUUUUGGAAGUCUCGUACCGGGUGCUGAGACAUCUUGCGCAGCCGUGAAGCGCUGCCUUCUGCGGGGCUUGCCUUCUGGCCAUGCCCUUCUUCUCUCCCUUGCACCUGUACCUCUUGGUCUUUGAAUAAAGCCUGAGUAGGAAG
modifications: Cap1, 5-methylcytosine, pseudouridine
- HCT [1, 2]: 0.4 L/L
- RBC [1, 2]: 5.26 10^12/L
- HCT [1, 3]: 0.44 L/L
- RBC [1, 3]: 5.43 10^12/L
- HCT [1, 4]: 0.4 L/L
- RBC [1, 4]: 5.08 10^12/L
- HCT ([1]; 0.05 mg/kg, 24 hours, Male NHP): 0.39 L/L
- RBC ([1]; 0.05 mg/kg, 24 hours, Male NHP): 4.96 10^12/L
- HCT ([1]; 0.05 mg/kg, 3 days, Female NHP): 0.39 L/L
- RBC ([1]; 0.05 mg/kg, 3 days, Female NHP): 5.04 10^12/L
- HCT ([1]; 0.05 mg/kg, 3 days, Male NHP): 0.41 L/L
- RBC ([1]; 0.05 mg/kg, 3 days, Male NHP): 5.13 10^12/L
- HCT ([1]; 0.05 mg/kg, 7 days, Female NHP): 0.4 L/L
- RBC ([1]; 0.05 mg/kg, 7 days, Female NHP): 5.05 10^12/L
- HCT ([1]; 0.05 mg/kg, 7 days, Male NHP): 0.42 L/L
- RBC ([1]; 0.05 mg/kg, 7 days, Male NHP): 5.17 10^12/L
- HCT [1, 5]: 0.44 L/L
- RBC [1, 5]: 5.64 10^12/L
- HCT ([1]; 0.05 mg/kg, Pre-dose, Male NHP): 0.44 L/L
- RBC ([1]; 0.05 mg/kg, Pre-dose, Male NHP): 5.68 10^12/L
- Female NHP HGB ([1]; 14/18 days): 113 g/L
- Female NHP Neutrophils ([1]; 14/18 days): 1.98 10^9/L
- Male NHP HGB ([1]; 14/18 days): 98 g/L
- Male NHP Neutrophils ([1]; 14/18 days): 2.58 10^9/L
- Female NHP HGB ([1]; 24 hours): 112 g/L
- Female NHP Neutrophils ([1]; 24 hours): 13.96 10^9/L
- Male NHP HGB ([1]; 24 hours): 113 g/L
- Male NHP Neutrophils ([1]; 24 hours): 14.92 10^9/L
- Female NHP HGB ([1]; 3 days): 114 g/L
- Female NHP Neutrophils ([1]; 3 days): 13.7 10^9/L
- Male NHP HGB ([1]; 3 days): 118 g/L
- Male NHP Neutrophils ([1]; 3 days): 9.76 10^9/L
- Female NHP HGB ([1]; 7 days): 116 g/L
- Female NHP Neutrophils ([1]; 7 days): 3.81 10^9/L
- Male NHP HGB ([1]; 7 days): 115 g/L
- Male NHP Neutrophils ([1]; 7 days): 2.74 10^9/L
- Female NHP HGB ([1]; Pre-dose): 129 g/L
- Female NHP Neutrophils ([1]; Pre-dose): 1.27 10^9/L
- Male NHP HGB ([1]; Pre-dose): 133 g/L
- Male NHP Neutrophils ([1]; Pre-dose): 1.53 10^9/L
- HCT [1, 6]: 0.37 L/L
- RBC [1, 6]: 4.92 10^12/L
- HCT [1, 7]: 0.34 L/L
- RBC [1, 7]: 4.21 10^12/L
- HCT [1, 8]: 0.38 L/L
- RBC [1, 8]: 4.96 10^12/L
- HCT ([1]; 0.5 mg/kg, 24 hours, Male NHP): 0.37 L/L
- RBC ([1]; 0.5 mg/kg, 24 hours, Male NHP): 4.66 10^12/L
- HCT ([1]; 0.5 mg/kg, 3 days, Female NHP): 0.38 L/L
- RBC ([1]; 0.5 mg/kg, 3 days, Female NHP): 4.97 10^12/L
- HCT ([1]; 0.5 mg/kg, 3 days, Male NHP): 0.39 L/L
- RBC ([1]; 0.5 mg/kg, 3 days, Male NHP): 4.91 10^12/L
- HCT ([1]; 0.5 mg/kg, 7 days, Female NHP): 0.38 L/L
- RBC ([1]; 0.5 mg/kg, 7 days, Female NHP): 5.04 10^12/L
- HCT ([1]; 0.5 mg/kg, 7 days, Male NHP): 0.39 L/L
- RBC ([1]; 0.5 mg/kg, 7 days, Male NHP): 4.8 10^12/L
- HCT [1, 9]: 0.43 L/L
- RBC [1, 9]: 5.57 10^12/L
- HCT ([1]; 0.5 mg/kg, Pre-dose, Male NHP): 0.46 L/L
- RBC ([1]; 0.5 mg/kg, Pre-dose, Male NHP): 5.57 10^12/L
- neutrophils relative to pre-dose levels ([1]; all dose groups): increase in neutrophils
- Average Protein Product, serum (mice): 19.8 pg/mL
